Like-named read-outs stand apart in the source and are kept apart here. One block for each molecule: values may come before it.
What was measured:
[1] = target: RAGE V-domain (Mus musculus) (UniProt Q62151); conditions: cited from earlier work
[2] = target: sRAGE-Fc sRAGE (Homo sapiens) (UniProt Q15109); conditions: cited from earlier work
[3] = target: RAGE C1 domain (Homo sapiens) (UniProt Q15109); conditions: cited from earlier work
[4] = target: RAGE (Bos taurus) (UniProt Q28173); conditions: cited from earlier work
[5] = target: RAGE (Bos taurus) (UniProt Q28173); conditions: cited from earlier work; remark: listed apart in the source
[6] = target: His-tagged human sRAGE expressed in HeLa cells (human, UniProt Q15109 23-342, N-glycans at N25 and N81); assay: ELISA
[7] = target: His-tagged human sRAGE expressed in HL60 cells (human, UniProt Q15109 23-342, N-glycans); assay: ELISA
[8] = target: His-tagged human sRAGE expressed in H4 cells (human, UniProt Q15109 23-342, N-glycans); assay: ELISA
[9] = target: His-tagged human sRAGE expressed in U373 cells (human, UniProt Q15109 23-342, N-glycans); assay: ELISA
[10] = target: His-tagged human sRAGE expressed in HEK293 cells (human, UniProt Q15109 23-342, N-glycans); assay: ELISA
[11] = target: T1, mAbGB3.1-enriched bovine RAGE (bovine, UniProt Q28173 23-416, N-glycans enriched for carboxylated glycans); assay: ELISA
T1 sequence (looked up): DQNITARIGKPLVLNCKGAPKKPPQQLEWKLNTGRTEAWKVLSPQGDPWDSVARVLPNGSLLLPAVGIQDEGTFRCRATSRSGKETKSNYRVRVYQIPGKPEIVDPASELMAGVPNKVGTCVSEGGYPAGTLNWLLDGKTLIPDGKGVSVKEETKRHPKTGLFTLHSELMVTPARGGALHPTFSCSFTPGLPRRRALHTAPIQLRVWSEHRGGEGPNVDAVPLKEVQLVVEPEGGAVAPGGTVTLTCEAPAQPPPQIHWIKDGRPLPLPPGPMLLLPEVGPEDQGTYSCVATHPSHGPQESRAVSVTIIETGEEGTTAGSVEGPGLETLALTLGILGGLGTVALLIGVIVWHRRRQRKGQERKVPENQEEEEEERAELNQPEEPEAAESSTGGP

[12] = target: T2, total bovine lung RAGE (bovine, UniProt Q28173 23-416, N-glycans (native glycosylation)); assay: ELISA
T2 sequence (looked up): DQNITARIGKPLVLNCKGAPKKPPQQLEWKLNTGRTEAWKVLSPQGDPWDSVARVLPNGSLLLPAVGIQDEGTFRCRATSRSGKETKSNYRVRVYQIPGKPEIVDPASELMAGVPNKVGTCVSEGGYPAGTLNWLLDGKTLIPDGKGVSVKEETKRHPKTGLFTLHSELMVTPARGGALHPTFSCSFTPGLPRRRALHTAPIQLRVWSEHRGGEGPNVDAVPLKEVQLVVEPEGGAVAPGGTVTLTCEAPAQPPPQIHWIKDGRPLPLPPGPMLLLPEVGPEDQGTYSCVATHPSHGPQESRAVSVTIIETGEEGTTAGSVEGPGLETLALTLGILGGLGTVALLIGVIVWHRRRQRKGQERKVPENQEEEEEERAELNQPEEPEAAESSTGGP

Sequence of RAGE C1 domain (Homo sapiens) (Q15109 124-221): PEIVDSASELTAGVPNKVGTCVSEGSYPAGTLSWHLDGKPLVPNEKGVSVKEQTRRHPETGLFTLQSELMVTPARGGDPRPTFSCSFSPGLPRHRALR
Sequence of His-tagged human sRAGE expressed in U373 cells (Q15109 23-342): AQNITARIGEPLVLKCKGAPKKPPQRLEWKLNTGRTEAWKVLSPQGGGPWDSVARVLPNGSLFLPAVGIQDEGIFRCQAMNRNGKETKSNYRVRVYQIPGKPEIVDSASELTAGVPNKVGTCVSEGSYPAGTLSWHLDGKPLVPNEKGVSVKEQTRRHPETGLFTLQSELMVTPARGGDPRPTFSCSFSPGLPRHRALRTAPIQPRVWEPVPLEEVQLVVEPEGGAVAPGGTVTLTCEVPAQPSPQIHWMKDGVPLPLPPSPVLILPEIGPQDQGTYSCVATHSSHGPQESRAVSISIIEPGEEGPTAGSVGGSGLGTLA
Sequence of His-tagged human sRAGE expressed in HEK293 cells (Q15109 23-342): as above
Sequence of sRAGE-Fc sRAGE (Homo sapiens) (Q15109 23-342): as above
Sequence of His-tagged human sRAGE expressed in HL60 cells (Q15109 23-342): as above
Sequence of His-tagged human sRAGE expressed in H4 cells (Q15109 23-342): as above
Sequence of His-tagged human sRAGE expressed in HeLa cells (Q15109 23-342): as above
Sequence of RAGE V-domain (Mus musculus) (Q62151 23-109): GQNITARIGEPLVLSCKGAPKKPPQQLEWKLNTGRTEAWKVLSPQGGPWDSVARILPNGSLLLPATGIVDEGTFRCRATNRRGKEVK

binding result [6]: binds | binding result [7]: binds | binding result [8]: binds | binding result [9]: binds | binding result [10]: binds | Kd [11]: 133 ± 46.4 nM | Kd [12]: 51.8 ± 20.6 nM
B1: recombinant human S100A12 (ligand, UniProt P80511 1-92, looked up)
chain: MTKLEEHLEGIVNIFHQYSVRKGHFDTLSKGELKQLLTKELANTIKNIKDKAVIDEIFQGLDANQDEQVDFQEFISLVAIALKAAHYHTHKE

Kd [11]: 30.9 ± 3.6 nM | Kd [12]: 53.1 ± 7.8 nM
B2: purified human S100A11 (ligand, UniProt P31949 1-105, looked up)
chain: MAKISSPTETERCIESLIAVFQKYAGKDGYNYTLSKTEFLSFMNTELAAFTKNQKDPGVLDRMMKKLDTNSDGQLDFSEFLNLIGGLAMACHDSFLKAVPSQKRT

Further lines, the molecule ahead of its results:

Molecule: S100A12 (from UniProt P80511)
Kd [1]: 90 nM | Kd [2]: 80 nM | Kd [3]: 90 nM

Molecule: S100A8/A9 (from UniProt P05109)
Kd [4]: 7.62 nM | Kd [5]: 34.4 nM

Reference: PMC2879712 (Journal of cellular biochemistry, 2010)
